Source: US20220056139A1 (UNIVERSITY OF SOUTHERN CALIFORNIA, published 2022)
Values belong to the binder of their own block, whether it stands above or below them.

Target: HLA-DR (human)
Assay: cell-based or functional assay

B1: huLym-1-B-DAP CAR (Experiment 3, with 261 tag) (receptor)
chain: EVQLVESGGGLVQPGRSLRLTCTASGFSLTSYGVHWVRQPPGKGLEWLAVIWSDGSTTYNSALKSRLTISKDNSKSQVYLQMNSLRAEDTAVYYCARHYGSTLAFASWGQGTLVTVSSGGGGSGGGGSGGGGSDIQMTQSPSSLSASVGDRVTITCRASVNIYSYLAWYQQKPGKAPNLLIYNAKILAEGVPSRFSGSGSGTDFTLTISSLQPEDFASYYCQHHYGTFTFGQGTKVEIKAVPPQQWALSTTTPAPRPPTPAPTIASQPLSLRPEACRPAAGGAVHTRGLDFACDIYIWAPLAGTCGVLLLSLVITLYCLCARPRRSPAQDGKVYINMPGRGYFLGRLVPRGRGAAEAATRKQRITETESPYQELQGQRSDVYSDLNTQRPYYK
killing of Raji cells at 2:1 effector to target ratio, overnight co-culture: ~80%

fold expansion of CAR T cells from days 7-14: < 4 fold
B2: huLym-1-B-BB3z CAR (receptor)
chain: EVQLVESGGGLVQPGRSLRLTCTASGFSLTSYGVHWVRQPPGKGLEWLAVIWSDGSTTYNSALKSRLTISKDNSKSQVYLQMNSLRAEDTAVYYCARHYGSTLAFASWGQGTLVTVSSGGGGSGGGGSGGGGSDIQMTQSPSSLSASVGDRVTITCRASVNIYSYLAWYQQKPGKAPNLLIYNAKILAEGVPSRFSGSGSGTDFTLTISSLQPEDFASYYCQHHYGTFTFGQGTKVEIKAVPPQQWALSTTTPAPRPPTPAPTIASQPLSLRPEACRPAAGGAVHTRGLDFACDIYIWAPLAGTCGVLLLSLVITLYCKRGRKKLLYIFKQPFMRPVQTTQEEDGCSCRFPEEEEGGCELRVKFSRSADAPAYKQGQNQLYNELNLGRREEYDVLDKRRGRDPEMGGKPRRKNPQEGLYNELQKDKMAEAYSEIGMKGERRRGKGHDGLYQGLSTATKDTYDALHMQALPP
